In US20120090043A1, “TARGETS FOR RETROVIRUS ASSOCIATED DISEASES” (priority 2009, published 2012):

Columns and labels:
[1] = test system: HIV-1 LTR promoter transactivation by HIV-1 Tat; experiment: Transactivation assay, HIV-1 LTR luciferase reporter with HIV-1 Tat; format: cell-based; conditions: HEK293 cells co-transfected with pHIV1LTR-Luc, HIV-1 Tat and the human ORF; relative luciferase activity 24 h post-transfection; positive if >=2 or <=0.5 and p<0.05
Procedure, shortened: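 HEK293 cells (10^4) were calcium-phosphate co-transfected with the HIV-1 LTR-luciferase reporter plus HIV-1 Tat, or the HTLV-1 LTR-luciferase reporter plus HTLV-1 Tax, each with a human ORF expression plasmid. A hit required relative activity ≥2 or ≤0.5 with paired t-test p<0.05.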

[2] = test system: HTLV-1 LTR promoter transactivation by HTLV-1 Tax; experiment: Transactivation assay, HTLV-1 LTR luciferase reporter with HTLV-1 Tax; format: cell-based; conditions: HEK293 cells co-transfected with pHTLV1LTR-Luc, HTLV-1 Tax and the human ORF; relative luciferase activity 24 h post-transfection; positive if >=2 or <=0.5 and p<0.05

Molecule | HIV_LTR transactiv. [1] [fold change] | HTLV_LTR transactiv. [2] [fold change]
ZNF614: human host interactor protein, Gene ID 80110, expressed from transfected ORF vector (protein) MIKTQESLTLEDVAVEFSWEEWQLLDTAQKNLYRDVMVENYNHLVSLGYQTSKPDVLSKLAHGQEPWTTDAKIQNKNCPGIGKVDSHLQEHSPNQRLLKSVQQCNGQNTLRNIVHLSKTHFPIVQNHDTFDLYRKNLKSSLSLINQKRRHGINNPVEFIGGEKTLLHGKHERTHTKTRFSENAKCIHTKFQVFKHQRTQKIEKPHACIECEQTFLRKSQLIYHENICIQENPGSGQCEKLSRSVLFTKHLKTNTTDKICIPNEYRKGSTVKSSLITHQQTHTEEKSYMCSECGKGFTMKRYLIAHQRTHSGEKPYVCKECGKGFTVKSNLIVHQRTHTGEKPYICSECGKGFTMKRYLVVHQRTHTGEKPYMCSECGKGFTVKSNLIVHQRSHTGEKSYICSECGKGFTVKRTLVIHQRTHTGEKSYICNECGKGFTTKRTLIIHQRTHTGEKPYECNECGKAFSQKICLIQHERCHTGKTPFVCTECGKSYSHKYGLITHQRIHTGEKPYECNECGKAFTTKSVLNVHQRTHTGERPYGCSDCEKAFSHLSNLVKHKKMHTREMGRISQVENSCNGESQLLPYK | 0.28 | 5.24
C10orf3: human host interactor protein, Gene ID 55165, expressed from transfected ORF vector (protein) MSSRSTKDLIKSKWGSKPSNSKSETTLEKLKGEIAHLKTSVDEITSGKGKLTDKERHRLLEKIRVLEAEKEKNAYQLTEKDKEIQRLRDQLKARYSTTTLLEQLEETTREGERREQVLKALSEEKDVLKQQLSAATSRIAELESKTNTLRLSQTVAPNCFNSSINNIHEMEIQLKDALEKNQQWLVYDQQREVYVKGLLAKIFELEKKTETAAHSLPQQTKKPESEGYLQEEKQKCYNDLLASAKKDLEVERQTITQLSFELSEFRRKYEETQKEVHNLNQLLYSQRRADVQHLEDDRHKTEKIQKLREENDIARGKLEEEKKRSEELLSQVQFLYTSLLKQQEEQTRVALLEQQMQACTLDFENEKLDRQHVQHQLHVILKELRKARNQITQLESLKQLHEFAITEPLVTFQGETENREKVAASPKSPTAALNESLVECPKCNIQYPATEHRDLLVHVEYCSK | 2.79 | 0.41
